# Results taken from US20030147847A1 (IMMUNEX, published 2003).
# T1: Full length UL16 on transfected 293 EBNA cells (human cytomegalovirus, UniProt P16757 27-230)
# T1 construct: whole, on cells; also called UL16 FL
# T1 sequence: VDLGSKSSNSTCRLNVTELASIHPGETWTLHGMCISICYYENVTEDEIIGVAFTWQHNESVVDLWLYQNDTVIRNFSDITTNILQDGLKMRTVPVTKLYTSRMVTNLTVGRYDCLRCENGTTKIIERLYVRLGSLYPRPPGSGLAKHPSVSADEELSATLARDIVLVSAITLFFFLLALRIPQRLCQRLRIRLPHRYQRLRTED
# T2: NKG2D/Dap10 on transfected 293E cells (UniProt P26718 1-216; Q9UBK5 19-93)
# T2 construct: whole, on cells; Co-expressed on 293 EBNA (293E) cells from the pDC409 vector; also called NKG2D+FLAG tagged Dap10
# T2 sequence 1: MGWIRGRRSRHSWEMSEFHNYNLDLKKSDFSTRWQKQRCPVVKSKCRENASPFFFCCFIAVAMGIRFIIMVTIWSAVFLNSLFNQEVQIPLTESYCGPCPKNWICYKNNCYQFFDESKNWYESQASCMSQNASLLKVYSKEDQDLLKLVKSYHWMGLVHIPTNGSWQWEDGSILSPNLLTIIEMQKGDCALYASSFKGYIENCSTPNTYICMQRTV
# T2 sequence 2: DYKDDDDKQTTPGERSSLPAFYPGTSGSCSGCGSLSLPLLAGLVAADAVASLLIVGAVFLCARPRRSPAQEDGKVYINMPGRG
# T3: FLAG tagged Dap10 alone on transfected 293 EBNA cells (UniProt Q9UBK5 19-93)
# T3 construct: whole, on cells
# T3 sequence: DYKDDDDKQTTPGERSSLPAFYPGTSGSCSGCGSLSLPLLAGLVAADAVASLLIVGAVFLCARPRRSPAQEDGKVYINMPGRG
# T4: NKG2D alone on transfected 293 EBNA cells (UniProt P26718 1-216, limits assumed)
# T4 construct: whole, on cells
# T4 sequence (looked up): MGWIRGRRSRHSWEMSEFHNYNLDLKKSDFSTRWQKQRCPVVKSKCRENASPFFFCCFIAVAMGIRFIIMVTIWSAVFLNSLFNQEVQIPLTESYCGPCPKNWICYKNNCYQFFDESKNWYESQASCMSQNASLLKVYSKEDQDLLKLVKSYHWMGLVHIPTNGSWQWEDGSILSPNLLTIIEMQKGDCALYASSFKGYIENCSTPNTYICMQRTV
# Assays:
# [1] = target: T1, Full length UL16 on transfected 293 …; test: flow cytometry on 293 EBNA cells transfected with full length UL16
# [2] = target: T2, NKG2D/Dap10 on transfected 293E cells; test: flow cytometry; NKG2D/Dap10-transfected 293E cells preincubated with 25 µg ULBP1/LZ (competitor)
# [3] = target: T1, Full length UL16 on transfected 293 …; test: flow cytometry, transfected 293 EBNA cells, 2 µg Fc protein + goat anti-human IgG PE
# [4] = target: T3, FLAG tagged Dap10 alone on transfected …; test: as above
# [5] = target: T4, NKG2D alone on transfected 293 EBNA …; test: as above
# [6] = target: T2, NKG2D/Dap10 on transfected 293E cells; test: as above
# [7] = target: T2, NKG2D/Dap10 on transfected 293E cells; test: flow cytometry; NKG2D/Dap10-transfected 293E cells preincubated with 25 µg hCD40L/LZ (control blocking protein)
binder,measurement,setting,value
"ULBP3/Fc (Fc fusion, That entry lacks the first five residues of the leader and still holds the rest of the signal peptide and the GPI signal; not shown: Fc portion of ULBP3/Fc is not described) DAHSLWYNFTIIHLPRHGQQWCEVQSQVDQKNFLSYDCGSDKVLSMGHLEEQLYATDAWGKQLEMLREVGQRLRLELADTELEDFTPSGPLTLQVRMSCECEADGYIRGSWQFSFDGRKFLLFDSNNRKWTVVHAGARRMKEKWEKDSGLTTFFKMVSMRDCKSWLRDFLMHRKKRLEPTAPPTMAPG",binding result,[1],no binding (tested: 2 µg)
same,Mean Fluorescence Intensity (MFI),[2],13 MFI
same,Mean Fluorescence Intensity (MFI),[3],11.9 MFI
same,Mean Fluorescence Intensity (MFI),[4],14 MFI
same,Mean Fluorescence Intensity (MFI),[5],9.55 MFI
same,Mean Fluorescence Intensity (MFI),[6],102 MFI
same,Mean Fluorescence Intensity (MFI),[7],267 MFI
